Experimental data taken from patent US12077566.

Molecular target: EGFR extracellular domain (with an amino acid sequence of 25-645) (human) (UniProt P00533)
Experiment: SPR, Biacore T200; EGFR extracellular domain on CM5 chip, rLZ-8 protein as analyte

- Kd: 6.43 nM
Substance: rLZ-8 (D20H/E68K) (from UniProt P14945 1-111)
